Measurements taken from article PMC4827060.

Columns and labels:
Experiment in all cases: SPR; IgG amine-coupled to CM5 chip (Biacore 3000); GST-ABD or GST at 54, 108, 216 and 432 nM, 10 μl/min for 7 min; 25 °C; PBS running buffer; 1:1 Langmuir model
Mouse IgG (mouse) = biological target: Mouse IgG (mouse)
Rabbit IgG (rabbit) = biological target: Rabbit IgG (rabbit)
Rat IgG (rat) = biological target: Rat IgG (rat)

With “GST-ABD (recombinant secondary antibody mimic; glutathione-S-transferase fused through a linker to the antibody-binding domain of protein A) (domain or fragment)” the Ka (Mouse IgG (mouse)) was 5.9e+07 M⁻¹, the Kd (Mouse IgG (mouse)) was 16.8 nM and the koff (Mouse IgG (mouse)) was 0.00107 s⁻¹. It also gave a kon (Mouse IgG (mouse)) of 63800 M⁻¹ s⁻¹, a Ka (Rabbit IgG (rabbit)) of 7.6e+08 M⁻¹ and a Kd (Rabbit IgG (rabbit)) of 1.31 nM. It also gave a koff (Rabbit IgG (rabbit)) of 9e-05 s⁻¹, a kon (Rabbit IgG (rabbit)) of 66600 M⁻¹ s⁻¹ and a Ka (Rat IgG (rat)) of 2.3e+08 M⁻¹. For the same substance, the Kd (Rat IgG (rat)) was 4.34 nM, the koff (Rat IgG (rat)) was 0.00022 s⁻¹ and the kon (Rat IgG (rat)) was 51800 M⁻¹ s⁻¹.
